Substrate: O=[N+]([O-])c1ccccc1O[C@@H]1O[C@H](CO)[C@H](O)[C@H](O)[C@H]1O
Test: purified protein
Type: biochemical, Bifidobacterium breve
Conditions: 50 mM sodium phosphate pH 6.5, 30°C

B1: β-gal I (Bifidobacterium breve DSM 20213 = JCM 1192) (protein)
chain: MQGKAKTIMTNLQSAQQFSQAWLTDPRVFAVNRLAAHSSHKFYDHAPQCGEAMDLKQSLDGQWRVQMVDLADLADNELAEAAFAQPGYDAAGFSPIEVPSALETKGFLNHQYVNQQYPWSGHESPVAPDVPKHNHVALYRHEFSLEPKAAAVLEANKTAADDTAKRRVTLTFQGAATAIAVWLNGAFIGYAEDSFTPSEFDVTDVLRDGVNTLAVACFEFSSASWLEDQDFWRLHGIFRSVELEAQPLVHVNDLRVLADYDHTTGEGSLDVVALVRNAGTAAAVAATVLDAAGNTVWHSKLTAGADAETLTVKANVGKVNPWSAEEPTLYTLQVVATDAAGQVIEAALQRIGFRHFAIEDGLMKLNGKRIVFKGVDRHEFDARTGRTIAEADMIEDIHSFKRLNINAVRTSHYPNETRWYELCDEYGIYVLDETNLETHGSWTDPGDVFQPARAIPGSKDEWRAACVDRTASMVRRDYNHPSVVIWSLGNEAFGGDVFYSMRDFVHENDPFRPVHYEGTFNDPEFSAATDIMSRMYAKPDEIVKLYLGEDGKKPYISCEYSHSMGNSTGGLHLYTELERYPLYQGGFIWDYVDQALWQDCGDGTERLAYGGDFEDRPNDYEFSGDGVMFADRTPSPKAQEVKQLYANVKLVPDESGVTITNDNLFVSTASSLFTARVLVDGVERWHANYRFDVPAGETVREPIAFPKVTDLVALSGSAEVTYEVDQRLAEATDWAPAGYELTFGQYVAAVSFDDGAADAVVAGDAEVAADGFNAGIHTDFGEVLLSKTQGGMVSFKRDGREMVIRRPNLTTFRALTDNDRGNGSGFERAQWMAAGRYARVTDTSVEETADGKGLKATYSYELADAKHTPVTVHYEVDAALRVHLTVEYPGEADAATLPAFGLEWILPKQYDRLRFYGLGPEETYADRLHGAKLGVFSRTAAEDCAPYLLPQETGNHEQVRWAEITDEYGHGMRVTAAGGTRFATSLLPYSSLMLEDALHQNELPKPRHTFLRLLAAQMGVGGDDTWGAPVHDEFQVPADQPLKLDVTLELI
notes: full length, C-terminal His6 tag kept (pET-21a), E. coli T7 Express with GroEL/GroES, IMAC; calculated 116,127 Da; homodimer 220 kDa; GH2; N-terminus from primer MQGKAKT, C-terminus before tag DVTLELI
In the case of B1, the Km is reported as 1300 ± 100 µM, the Vmax is reported as 486 µmol/min/mg and the kcat is reported as 939 ± 7 s⁻¹. The kcat/Km was 722000 ± 66000 M⁻¹ s⁻¹.

B2: β-gal II (Bifidobacterium breve DSM 20213 = JCM 1192) (protein)
chain: MNTTDDQLKNGDPIVSPSMPTTAWLTDPRVYAVHRLDAHSDHACWSHAPVNGEGSDLGQSLDGEWRVRVETAPTGRFPDGTSDVSPLFAASDFDDSSFSRVQVPSHLETAGLLAPQYVNVQYPWDGHEDPEAPAIPEHGHVAVYRREFDADGEVAQAVREGHPVTLTFQGAATAIYVWLNGSFVGYAEDSFTPSEFDVTDAIKMEGNVLAVACYEYSSASWLEDQDFWRLHGLFRSVELNARPSAHVADIHADTDWDPATSRGSLSLDILVDGTPNAATADLVLRDKNGTTVWHTSTEATGTLHAEAEIDGASPWSAERPDLYTLSIALLDADGRILEIARTRIGFRRVSIEDGILKLNGKRLVFRGVNRHEFDCRRGRAITEEDMLWDIRFMKRHNINAVRTSHYPNQSRWYELCDEYGIYLIDETNLETHGSWNSPGDIPVGTSVPGDDEAWLGACIDRLDSMIMRDRNHPSVLIWSLGNESYAGEVLKAMSAHAHRLDPGRPVHYEGVNWNHAYDEISDFESRMYAKPAEIRDWLEHGDERGEASKPFVSCEYMHAMGNSCGGLSEFIDLERYERYSGGFIWDYIDQGLVQRLPDGCERLSVGGDWGDRPTDYEFVGNGIVFADRTPSPKAQEVKQLYSPVKLTPDGHGVTIENRNLFASTDGYVFAARLLEDGREIWHADYRFDVAAGDTQHHDIAFPDIDSDEGTREVTYEVDLLLAEATAWAPAGYELAFGQLTDTLNPEGDITGNNQDDGRATVTLSRWNAGIRRDDEEILMSRTQGGIVSWKRNGREMVIRRPEIVTFRPLTDNDRGNRSGYDRAAWFAAGRYAVVTDTSITQSDDGGLTAAYRYELADPDHTPVSVTYRVTPGMRMQLTVEYPGNAAGAASLPAFGIEWELPGEYQHLRYYGTGPEETYRDRKQGGKLGIWDTTSEASTAPYLMVQETGSHEDVRWLEATDIQGHGLRVTQRGDRHFTASLLPWNTYTIEAARRHEDLPAPRHNYLRLLAAQMGVGGDDSWGAPVHTAYQLPADRPLTLDVNLELI
notes: full length, C-terminal His6 tag kept (pET-21a), E. coli T7 Express with GroEL/GroES, IMAC; calculated 116,594 Da; homodimer 211 kDa; GH2; N-terminus from primer MNTTDDQ, C-terminus before tag DVNLELI
In the case of B2, the Km is reported as 670 ± 70 µM, the Vmax is reported as 188 µmol/min/mg and the kcat is reported as 364 ± 6 s⁻¹. It also gave a kcat/Km of 543000 ± 65000 M⁻¹ s⁻¹.
